Measurements from paper PMC7824710.
pKd: −log10 of the molar value.

Key:
[1] = biological target: recombinant kinase domain of MKK7 (MKK7-KD), residues 101–405 (UniProt O14733); assay: other fluorescence titration; tryptophan fluorescence quenching at 334 nm; MKK7-KD at 1.25 µM in phosphate buffer pH 7.5, peptide 10 nM to 140 µM; fit log[inhibitor] vs. response, variable slope
[2] = biological target: recombinant kinase domain of MKK7 (MKK7-KD), residues 101–405 (UniProt O14733); assay: other fluorescence titration; FITC fluorescence quenching; FITC-labelled peptide at 10 nM titrated with soluble MKK7-KD 0-1000 nM; 96-well black plates, 200 µL, excitation 488 nm, emission at 517 nm; one-site total fit

UniProt O14733, sequence (O14733 101-405): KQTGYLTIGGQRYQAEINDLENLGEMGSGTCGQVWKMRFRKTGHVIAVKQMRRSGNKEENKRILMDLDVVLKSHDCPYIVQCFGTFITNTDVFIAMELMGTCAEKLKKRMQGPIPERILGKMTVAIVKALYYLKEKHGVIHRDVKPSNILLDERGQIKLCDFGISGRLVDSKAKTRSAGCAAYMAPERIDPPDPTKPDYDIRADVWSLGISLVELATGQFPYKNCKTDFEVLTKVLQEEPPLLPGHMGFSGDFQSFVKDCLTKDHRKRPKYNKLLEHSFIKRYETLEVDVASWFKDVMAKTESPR

pKd [1] | pKd [2] | Δ Fluorescence at 334 nm (at concentrations above 10 µM) [1] | Substance
6.62 | – | – | DTP3 (Ac-D-Tyr-D-Arg-D-Phe-NH2) (peptide)
– | 6.91 | – | FITC-βAla2-DTP3 (peptide)
4.39 | – | 4 units | scramble (SCRB) peptide (Ac-D-Arg-D-Phe-D-Tyr-NH2)
